In the nanobody polyreactivity screen of Harvey et al. (2022):

Assay: yeast display, Sf9 membrane polyspecificity reagent, FACS + sequencing; frameworks hold sequencing errors
Outline: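 Using colony PCR, genes from sorted yeast display clones were amplified, then sequenced on MiSeq at 2 × 250 and filtered by CDR length. The clones had been stained with 10% biotinylated, detergent-solubilized Sf9 membrane reagent for 1 hour at 4 °C and sorted by FACS into low and high (top ~1%) gates on anti-HA and streptavidin fluorescence. Polyreactivity labels come from the gate of origin.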

## QVQLVESGGGLVQAGGSLRLSCAASGGISSSNAMGWYRPAPGKERELVAGINSRGGSTYADSVKGRFTISRDNAKHTVYLQMNSLKPEDTAVYYCAAAPTFKWRRNNYDYWGQGTQVTVSS
  polyreactivity (PSR sort gate): high polyreactivity

## QVQLVESGGGLVQAGGSLRLSCAASGGIYGNYAMGWYRQAPGKERELVADITTGGSTYYADSVKGRFTISRDNAKNTVYLQMNSLKPEDTAVYYCNARSLFHRFSSYKYDYWGQGTQVTVST
  polyreactivity (PSR sort gate): high polyreactivity

## QVQLVESGGGLVQAGGSLRLSCAASGGIYYRYAKGWYRQAPGKERDLVAVISRSGSTYYADSVKGRFTMSRDNAQNTVYLQMNSLKPEDTAVYYCAAYSRCRYGLVPYDYWGQGTQVTVSS
  polyreactivity (PSR sort gate): high polyreactivity

## QVQLVESGGGLVQAGGSLRLSCAASGGNFTYNAMGWYRQAPGKERELVASISRGGGSTYYADSVKGRFTISRDNAKNTVYLQMNSLKPEDTAVYYCAASFIVGYYGYDYWGQGTQVTVSS
  polyreactivity (PSR sort gate): low polyreactivity

## QVQLVESGGGLVQAGGSLRLSCAASGGPFYTYTMGWYRQAPGKERELVAAISFSDASTYYADSVKGRFTISRDNAKNTVFLQMNSLKPEDTGVYYCNAGVLQWVYYPFDYWGQGTQVTVSS
  polyreactivity (PSR sort gate): low polyreactivity

## QVQLVESGGGLVQAGGSLRLSCAASGGSFGMNAMGWYRKAPGKERELVASINANGGSTYYADSVKGRFTISRDNAKNTVYLQMNSLKPEDTAVYYCAVVVTRYNHNEYNSWGQGTQVTVSS
  polyreactivity (PSR sort gate): low polyreactivity

## QVQLVESGGGLVQAGGSLRLSCAASGGTFAFNAMGWYRQAPGKERELVATIRYSGGSTYADSVKGRFTISRDNAKNTVYLQMNSLKPEDTAVYYCAASGYYIFSWRYDYWGQGTQVTVSS
  polyreactivity (PSR sort gate): low polyreactivity

## QVQLVESGGGLVQAGGSLRLSCAASGGTFARNAMGWYRQAPGKERELVATITRRAGNTYYADSVKGRFTISRDNAKNTVYLEMNSLKREDTAVYYCAGVATWGFYPYLIPEVGNDYWGQGTQVTVSS
  polyreactivity (PSR sort gate): high polyreactivity

## QVQLVESGGGLVQAGGSLRLSCAASGGTFARYAMGWYRQAPGKERELVAAITRSGGTTYYADSVKGRFTISRDNAKNTVYLQMNSLKPEDTAVYYCAALPIVDYYGYGYWGQGTQVNVSS
  polyreactivity (PSR sort gate): high polyreactivity

## QVQLVESGGGLVQAGGSLRLSCAASGGTFAVNVMGWYRQAPGKERELVAAITSNGGSTYYADSVKGRFTISRDNAKNTVYLQMNSLTPEATAVYYCAAEGSGWYTGHYYYWGQGTQVTVSS
  polyreactivity (PSR sort gate): low polyreactivity

## QVQLVESGGGLVQAGGSLRLSCAASGGTFAYYAMGWSRQAPGKERELVAAISSGGSTNYADSVKGRFTISRDNAKNTVNLQMNSLKPEDTAGYFCAADYYGPFYGYTYDYWGQGTQVTVSS
  polyreactivity (PSR sort gate): low polyreactivity

## QVQLVESGGGLVQAGGSLRLSCAASGGTFDNYAMGWYRQAPGKERELVAAISWSGDNTYYADSVKGRFTISRDNAKNTVYLQMNSLKPEDTAVYYCAAVYFWYSYDEGYTAYDYWGQGTQVTVSS
  polyreactivity (PSR sort gate): low polyreactivity

## QVQLVESGGGLVQAGGSLRLSCAASGGTFDPSAMGWYRQAPGKERDFVAAISWSGGRTYYADSVKGRFTISRDNAKNTVYLQMNSLKPEDTAVYYCAATSVGYAQRRYGYWGQGTQVTVSS
  polyreactivity (PSR sort gate): high polyreactivity

## QVQLVESGGGLVQAGGSLRLSCAASGGTFDTYDMGWYRQAPGKERELVAAIRFGDGTTYYADSVKGRFTISRDNAKNTVYLQMNSLKPEDTAVYYCAAVFVWQPQYDQFRYDYWGQGTQVTVSS
  polyreactivity (PSR sort gate): low polyreactivity

## QVQLVESGGGLVQAGGSLRLSCAASGGTFDVNAMGWYRQAPGKERELVAAITWSGGNTYYADSVKGRFTISRDNAKNTVYLQMTSLKPEDTAVYYCATDFSPVYYTRYDYWGQGTQVTVSS
  polyreactivity (PSR sort gate): low polyreactivity

## QVQLVESGGGLVQAGGSLRLSCAASGGTFDVYTMGWYRQAPGKERELVAAIDNGGSTNYADSVKGRFTISRDNAKNTVYLQMNSLKPEDTAVYYCAADEVYLFWGIAEFIYDYWGQGTQVTVSS
  polyreactivity (PSR sort gate): low polyreactivity

## QVQLVESGGGLVQAGGSLRLSCAASGGTFDWNTMGWYRQAPGKERELVASITSGGRTNYAASVKGRFTISRDNAMNPVYLQLNSLKPEDTAVYYCANYPRSAYPWQTWVGQKFDYWGQGTQVTVSS
  polyreactivity (PSR sort gate): low polyreactivity

## QVQLVESGGGLVQAGGSLRLSCAASGGTFETYALGWYIPAPGKEREFVAANSRSGGSTYYADSVKGRFTISRDNAKNTVYLQMNSLKPEDTAVYYCAAEGYDLSSRVYGGYDYWGQGTQVTVSS
  polyreactivity (PSR sort gate): low polyreactivity

## QVQLVESGGGLVQAGGSLRLSCAASGGTFFTNAMGWYRQAPGKERELVAVITGSGGRTYYADSVKGRFTISRDNAKNTVYLQMNSLKPEDTAVYYCAARGYSWGQGTQVTVSS
  polyreactivity (PSR sort gate): high polyreactivity

## QVQLVESGGGLVQAGGSLRLSCAASGGTFGQYAMGWYRLAPGKERELVAAITSSGGRKYYADSVKGRFTISRDNAKNTVYLQMNSLKPEDTAVYYCAADVQSRYVGEGDYWGQGTQVTVSS
  polyreactivity (PSR sort gate): high polyreactivity

## QVQLVESGGGLVQAGGSLRLSCAASGGTFGQYAMGWYRQAPGKERELVAAITSSGGRTYYADSVKGRFTISRDNAKNTVYLQMNSLKPEDTAVYYCAADVQSRYVGEGDYWGQGTQVTVSS
  polyreactivity (PSR sort gate): high polyreactivity

## QVQLVESGGGLVQAGGSLRLSCAASGGTFGSYAMGWYRQAPGKDRELVAAITGSGGRTYYADTVKGRFTISRDNAKNTVYLQMKSLKPEDTAVYYCNATRGIGTPYYYWGQGTQVTVSS
  polyreactivity (PSR sort gate): high polyreactivity

## QVQLVESGGGLVQAGGSLRLSCAASGGTFGYNAMGWYRQAPGKERELVADITRGGITYYADSVKGRFTISRDNAKNTVYLQMNSLKPEDTAVYYCNAEYYVFSYSYGGVLRGDYWGQGTQVTVSS
  polyreactivity (PSR sort gate): high polyreactivity

## QVQLVESGGGLVQAGGSLRLSCAASGGTFHLNAMGWYRQAPRKEREFVASISWSGGSTYYADSVKGRFTISRDNAKNTVYLQMNCLKPEDTAVYYCARRKYYRQGGRTKGYDYWGQGTQVTVSS
  polyreactivity (PSR sort gate): high polyreactivity

## QVQLVESGGGLVQAGGSLRLSCAASGGTFHYYAMGWYRQAPGKERELVAAINRSGDSTYYADSVKGRFTISRDNAKNTVYLQMNSLKPEDTAVYYCAVSYYGADGNPFPHDYWGQGTQVTVSS
  polyreactivity (PSR sort gate): low polyreactivity

## QVQLVESGGGLVQAGGSLRLSCAASGGTFITNAMGWYRKAPGKERELVAAITSGGRTTYADSVKGRFTISRDNAKNTVDLQMNSLKPVDTAVYYCAADHVYSSTYFLDDYWGQGTQVTVSS
  polyreactivity (PSR sort gate): low polyreactivity

## QVQLVESGGGLVQAGGSLRLSCAASGGTFLFYGMGWYRQAPGNERELVAVITWSGGSTYYADSVKGRFTISRDTAKNTVYLHMNSLKPVDTAVYYCAADGYFYFDYPWMNYWGQGTQVTVSS
  polyreactivity (PSR sort gate): low polyreactivity

## QVQLVESGGGLVQAGGSLRLSCAASGGTFLNYAMGWYRQAPGKERELVAVITNGDSTYYADSVKGRFTISRDNAKNSVYLQMNSLKPEDTAVYYCNADDWGQYNIWYDYWGQGTQVTVSS
  polyreactivity (PSR sort gate): low polyreactivity

## QVQLVESGGGLVQAGGSLRLSCAASGGTFLSNAMGWYRQAPGKERELVAAISASSGSTYYADSVKGRFTISRDNAKNPVYLQMNSVKPEDTAVYYCAKERRASVVRYDYWGQGTQVTVSS
  polyreactivity (PSR sort gate): low polyreactivity

## QVQLVESGGGLVQAGGSLRLSCAASGGTFNGYAMGWYRQAPGKERELVAAITSSGGSTYYADSVKGRFTISRDNAKNTVYLQMNSLKPEDTAVYYCAAALYPTYDVVRGYAYEYWGQGTQVTVSS
  polyreactivity (PSR sort gate): low polyreactivity

## QVQLVESGGGLVQAGGSLRLSCAASGGTFNSNAMGWYRQAPGKERELVASITWRCGTYYADSVKGRFTISRDNAKNTVYLQMNSLKPVDTAVYYCAADTYYKGDYWGQGTQVTVSS
  polyreactivity (PSR sort gate): high polyreactivity

## QVQLVESGGGLVQAGGSLRLSCAASGGTFNSNAMGWYRQAPGKERELVASITWRGGTYYADSVKGRFTISRDNAKNTVYLQMNSLKPEDTAVYYCAARGTIPGIHWIYYYWGQGTQVTVSS
  polyreactivity (PSR sort gate): high polyreactivity

## QVQLVESGGGLVQAGGSLRLSCAASGGTFNTNAMGWYRQAPGKERELVATIRGGVITTYADSVKGRFTISRDNAKNTVYLQMNSLKPEDTAVYYCAVDDLRGYDYWGQGTQVTVSS
  polyreactivity (PSR sort gate): low polyreactivity

## QVQLVESGGGLVQAGGSLRLSCAASGGTFPRNAMGWYRQAPGKERELVAAISRRGGSTYYADSVKGRFTISRDNAKNTVYLQMNSLKPEDTAVYYCATVQDKTYEYGYWGQGTQVTVSS
  polyreactivity (PSR sort gate): high polyreactivity

## QVQLVESGGGLVQAGGSLRLSCAASGGTFPTNAMGWYRQAPGKERELVAAITSSGVRTYYADSVKGRFTISRDNAKNTVYLQMNSLKPEDTAVYYCATYSYTWMNYYWGQGTQVTVSS
  polyreactivity (PSR sort gate): high polyreactivity

## QVQLVESGGGLVQAGGSLRLSCAASGGTFQDYGMGWYRQAPGKERELVAAITWSGGSTYYADSVKGRFTISRDNAKNTVYLQMNSLKPEDTAVYYCAAVYADVYLYLTAYDYWGQGTQVTVSS
  polyreactivity (PSR sort gate): low polyreactivity

## QVQLVESGGGLVQAGGSLRLSCAASGGTFQINAMGWYRQAPGKEREMVAAISAAGGRTYYADSVKGRFTISRDNANNTVYLQMNSLKPEDTAVSYCAADWSYQVGRHQYFPMRYDYWGQGTQVTVSS
  polyreactivity (PSR sort gate): high polyreactivity

## QVQLVESGGGLVQAGGSLRLSCAASGGTFRANAMGWYRQAPGKERELVAAISFRGGTTYYADSVKGRFTISRDNAKNTVYLQMNSLKPEDTAVYYCAARFLYYFRGKGYDYWGQGTQVTVSS
  polyreactivity (PSR sort gate): high polyreactivity

## QVQLVESGGGLVQAGGSLRLSCAASGGTFRKYAMGWYRPAPGKERELVATISNGGSTYYADSVKGRFTISRDNAKNTVYLQMNSLIPEDTAVYYCAARFDYWVSGGLVKYNYWGQGTQVTVSS
  polyreactivity (PSR sort gate): high polyreactivity

## QVQLVESGGGLVQAGGSLRLSCAASGGTFRLYAMGWYRQAPGKDRELVAAITGVGSTNYADSVKGRFTISRDNAKNTVYLQMNSLKPEDTAVYYCAAYYWSQVLIQGYYSWGQGTQVTVSS
  polyreactivity (PSR sort gate): high polyreactivity

## QVQLVESGGGLVQAGGSLRLSCAASGGTFRSNAMGWYRQAPGKERELVAASTNYADSVKGRFTISRDNAKTTVYLQMNSLKPEDTAVYFCAARLASWPLTYDFQWYEYWGQGTQVTLSS
  polyreactivity (PSR sort gate): low polyreactivity

## QVQLVESGGGLVQAGGSLRLSCAASGGTFRSYAMGWFRQAPGKERELVASISSGGTTNYADSVKGRFTISRDNAKNTVYLQLTSLKPEDTAVYYCAKSYPGRAPGYYSWGQGTQVTVSS
  polyreactivity (PSR sort gate): low polyreactivity

## QVQLVESGGGLVQAGGSLRLSCAASGGTFRVYAMGWYRQAPGKERELVASISWTVGGTYADSVKGRFTISRDNAKNTVYLQMNSLKPEDTAVYYCAAGGEWVNPYFPSSLDYWGQGTQVTVSS
  polyreactivity (PSR sort gate): low polyreactivity
